Assay results taken from PMC6610143 (Nature Communications, 2019).
No end group written: not given here.

Experiments:
[1] = target: T1, biotin-labeled HA peptide (HA epitope peptide (influenza A virus …, also: biotin label, position not given here)); experiment: SPR; conditions: both partners purified
T1 chain: YPYDVPDYA

[2] = target: T2, mitoNEET (Mito) fused to mCherry and 1 × HA (synthetic HA epitope tag (influenza A …, UniProt P03437)); conditions: partners not purified
T2 chain: YPYDVPDYA

[3] = target: T3, mitoNEET (Mito) fused to mCherry and the spaghetti monster HA tag (synthetic HA epitope tag (influenza A …)); experiment: co-localisation of the fluorescent scFv with its tagged target in living cells; conditions: partners not purified
T3 construct: also called Mito-mCh-smHA; smHA-tagged Mito; source: U2OS, transfected, in living cells; not shown: mCherry, internal (between Mito and smHA), kept
T3 chain: YPYDVPDYA

B1: purified recombinant HA frankenbody fused to GFP (from pET23b-FB-GFP) (scFv, V domains shown)
VH: EVKLVESGGGLVKPGGSLKLSCAASGFTFSSYGMSWVRQTPEKRLEWVATISRGGSYTYYPDSVKGRFTISRDNAKNTLYLQMSSLRSEDTAIYYCARRETYDEKGFAYWGQGTTLTVSS
VL: DIVLTQSPASLTVSLGQRATISCKSSQSLLNSGNQKNYLTWYQQKPGQPPKLLIYWASTRESGIPARFSGSGSGTDFTLNIHPVEEEDAATYYCQNDNSHPLTFGAGTKLEI
notes: also called purified FB-GFP; purified frankenbody; source: E. coli BL21 (DE3) pLysS, purified (HisTrap HP, Superdex 200)
- Kd [1]: 14.7 ± 7.4 nM

B2: HA frankenbody fused to mEGFP (χ15F11^HA) (scFv, V domains shown)
VH: B1 VH
VL: B1 VL
notes: also called FB-GFP; FB
- Mito/Bg (mitochondria to background fluorescent intensity ratio) [2]: 3.5
- Mito/Bg (mitochondria to background fluorescent intensity ratio) [3]: 16.6
